Measurements taken from the supplement of paper PMC7877785.
± gives the uncertainty stated by the source.

Assay: self-splicing fitness, log relative to wild type (ln ratio); higher = more splicing; Tetrahymena group I intron in knt gene, E. coli kanamycin selection, DiMSum; sequences stand for … in CUCUCU…GGAGGGAAAAGUUAUCAGGCAUGCACCUGGUAGCUAGUCUUUAAACCAAUAGAUUGCAUCGGUUUAAAAGGCAAGACCGUCAAAUUGCGGGAAAGGGGUCAACAGCCGUUCAGUACCAAGUCUCAGGGGAAACUUUGAGAUGGCCUUGCAAAGGGUAUGGUAAUAAGCUGACGGACAUGGUCCUAACCACGCAGCCAAGUCCUAAGUCAACAGAUCUUCUGUUGAUAUGGAUGCAGUUCACAGACUAAAUGUCGGUCGGGGAAGAUGUAUUCUUCUCAUAAGAUAUAGUCGGACCUCUCCUUAAUGGGAGCUAGCGGAUGAAGUGAUGCAACACUGGAGCCGCUGGGAACUAAUUUGUAUGCGAAAGUAUAUUGAUUAGUUUUGGAGUACUCGUGGUCG
Method in brief: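 DiMSum derived fitness as the error-weighted combination of fold changes across replicates, kanamycin versus no kanamycin, normalised to wild type. E. coli BL21(DE3) held the library, which randomised all eight P1ex-region intron nucleotides within the knt kanamycin-resistance gene on pET-22b(+). Six replicate transformations grew overnight at 37°C or 30°C on LB agar with or without 25 μg/mL kanamycin, also containing 100 μg/mL carbenicillin, 50 μM IPTG and 0.2% rhamnose, and pooled colonies were amplicon-sequenced on an Illumina HiSeq 2500.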

| Sequence | self-splicing fitness (ln) (37 °C) | self-splicing fitness (ln) (30 °C) |
| --- | --- | --- |
| CGGGAGCAAUAUUACGAAUC | -0.75 ± 0.23 | – |
| CGGGAGCAAUAUUACGACGU | -1.16 ± 0.18 | -3.47 ± 0.33 |
| CGGGAGCAAUAUUACGAGCU | -1.89 ± 0.38 | -3.18 ± 0.41 |
| CGGGAGCAAUAUUACGAGGA | -2.53 ± 0.28 | -4.2 ± 0.39 |
| CGGGAGCAAUAUUACGAGGU | -2.18 ± 0.31 | -4.39 ± 0.39 |
| CGGGAGCAAUAUUACGAUCA | -1.75 ± 0.43 | – |
| CGGGAGCAAUAUUACGCACG | – | -1.33 ± 0.31 |
| CGGGAGCAAUAUUACGCUAA | – | -2.62 ± 0.43 |
| CGGGAGCAAUAUUACGCUAG | -1.27 ± 0.35 | -2.57 ± 0.27 |
| CGGGAGCAAUAUUACGCUCG | -0.772 ± 0.32 | – |
| CGGGAGCAAUAUUACGGAUG | -2.75 ± 0.26 | -3.1 ± 0.23 |
| CGGGAGCAAUAUUACGGGCC | – | -1.81 ± 0.21 |
| CGGGAGCAAUAUUACGUCGG | -1.66 ± 0.15 | -2.52 ± 0.14 |
| CGGGAGCAAUAUUACGUCUA | -1.82 ± 0.21 | -1.89 ± 0.21 |
| CGGGAGCAAUAUUACGUGGU | -2.46 ± 0.19 | -3.52 ± 0.2 |
| CGGUAGCAAUAUUACGAAAU | -3.07 ± 0.37 | -2.91 ± 0.21 |
| CGGUAGCAAUAUUACGACAA | 0.305 ± 0.1 | -2 ± 0.21 |
| CGGUAGCAAUAUUACGACCC | -1.29 ± 0.44 | 0.488 ± 0.48 |
| CGGUAGCAAUAUUACGACUU | 0.365 ± 0.11 | -0.479 ± 0.094 |
| CGGUAGCAAUAUUACGAGUA | -1.32 ± 0.4 | – |
| CGGUAGCAAUAUUACGAUGG | 0.646 ± 0.14 | -0.774 ± 0.1 |

| Sequence | self-splicing fitness (ln) (37 °C) | self-splicing fitness (ln) (30 °C) |
| --- | --- | --- |
| CGGUAGCAAUAUUACGCACC | -0.162 ± 0.39 | – |
| CGGUAGCAAUAUUACGCAGU | -2.63 ± 0.16 | -4.22 ± 0.22 |
| CGGUAGCAAUAUUACGCCCU | 0.785 ± 0.29 | 0.24 ± 0.19 |
| CGGUAGCAAUAUUACGCUUG | -0.206 ± 0.14 | -2.07 ± 0.14 |
| CGGUAGCAAUAUUACGGUGU | -2.04 ± 0.17 | -3.24 ± 0.17 |
| CGGUAGCAAUAUUACGUACA | -0.643 ± 0.19 | -1.51 ± 0.14 |
| CGGUAGCAAUAUUACGUAGG | 0.647 ± 0.08 | -0.647 ± 0.051 |
| CGGUAGCAAUAUUACGUCGA | -0.214 ± 0.16 | -2.09 ± 0.23 |
| CGGUAGCAAUAUUACGUGCG | -0.87 ± 0.12 | -1.41 ± 0.12 |
| CGGUAGCAAUAUUACGUUAG | 0.0358 ± 0.097 | 0.11 ± 0.074 |
| CGUAAGCAAUAUUACGACGU | -0.981 ± 0.15 | -2.15 ± 0.15 |
| CGUAAGCAAUAUUACGAGCC | -1.87 ± 0.22 | – |
| CGUAAGCAAUAUUACGAGCG | -2.67 ± 0.24 | -1.02 ± 0.11 |
| CGUAAGCAAUAUUACGAGGC | -1.99 ± 0.29 | -3.73 ± 0.32 |
| CGUAAGCAAUAUUACGAUAU | -2.77 ± 0.2 | -2.95 ± 0.14 |
| CGUAAGCAAUAUUACGAUCA | -0.755 ± 0.12 | -1.17 ± 0.11 |
| CGUAAGCAAUAUUACGAUGA | – | -3.44 ± 0.34 |
| CGUAAGCAAUAUUACGCACU | -1.6 ± 0.18 | -2.27 ± 0.24 |
| CGUAAGCAAUAUUACGCAGU | -2.64 ± 0.34 | -3.05 ± 0.2 |
| CGUAAGCAAUAUUACGCCCG | -0.621 ± 0.23 | -1.93 ± 0.18 |
